From patent US11174311B2, “Antibody against trimeric TNFα complex” (UCB BIOPHARMA SRL, priority 2016, dated 2021)
Entries after “also recorded” stand apart in the source; their conditions may differ.

How the values were obtained:
Human TNFα [1] = target: T1, Human TNFα (Homo sapiens, UniProt P01375); assay: Single cycle kinetics by surface plasmon resonance; assay type: binding; parameters: made in house
Experimental: For single cycle kinetics profiling of compound (1) to either directly immobilised TNFα or CA1974-captured TNFα surface plasmon resonance was performed at 25° C. using a BIAcore T200 (GE Healthcare). Human TNFα was tethered onto flow-channel (Fc)2 (2000 RU). CA1974 IgG (>10,000 response units) was tethered onto Fc3,4 and Fc1 blank immobilisation on a CMS Sensor Chip (GE Healthcare) via amine coupling chemistry. The surface was allowed to stabilise in HBS-P buffer (10 mM HEPES, pH 7.4, 0.15 M NaCl, 0.0005% (v/v) surfactant P20-GE Healthcare)+5% DMSO was used as the running buffer. Human TNFα was flowed over Fc4 to a capture level of ˜2,000 RU. Compound (1) was flowed over all four flow cells in series (1.875 μM, 3.75 μM, 7.5 μM and 30 μM) at 100 μl/min. Double referenced background-subtracted binding curves were produced using the T200 Evaluation software (version 1.0) following standard procedures.
Target sequence in this assay (P01375 77-233 limits assumed): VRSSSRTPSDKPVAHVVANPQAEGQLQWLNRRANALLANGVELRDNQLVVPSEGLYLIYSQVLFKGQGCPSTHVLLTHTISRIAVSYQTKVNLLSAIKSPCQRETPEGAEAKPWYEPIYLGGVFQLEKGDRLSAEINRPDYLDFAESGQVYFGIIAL

soluble form of TNFα = target: T2, soluble form of TNFα (Homo sapiens, UniProt P01375); assay: SPR on Biacore 4000 against immobilised soluble TNFα; assay type: binding; conditions: concentration of up to 100 μM
T2 construct: the immobilised soluble form of CD40L and the soluble form of TNFα
T2 sequence (P01375 77-233 limits assumed): as above
Experimental: In another experiment, BIO8898 was tested against the immobilised soluble form of CD40L and the soluble form of TNFα by SPR on a Biacore 4000 machine.

[2] = target: human TNFα complexed with compound (1) (Homo sapiens, UniProt P01375); assay: Size exclusion chromatography (HPLC) of mouse Fab with TNFα-compound complex; assay type: binding
human TNFα complexed with compound (1), sequence (P01375 77-233 limits assumed, one chain of several): as the sequence (P01375 77-233 limits assumed) above

Human TNFα [3] = target: T1, Human TNFα; assay: FACS assay, HEK JumpIn cells overexpressing TNF-RI, receptor-bound TNFα; assay type: cell-based; parameters: host or cells: HEK JumpIn cells (express the partner TNF-RI only); conditions: antibody at 1 and 10 μg/ml
Experimental: Recombinant antibodies were also tested for binding to compound-distorted TNFα in a FACS assay using human embryonic kidney (HEK) JumpIn cells, which overexpress TNF-RI after induction with doxycycline at 1 μg/ml for 2.5 hours. HEK cells were trypsinised and incubated for 2 h in medium to allow recovery of digested TNFRI levels. Human TNFα at 2 μg/mL was pre-incubated with 40 μM compound (1) or 0.4% DMSO for 1 h at 37° C. The pre-incubation mix was added to the cells for 1 h on ice (dilution 1:4, final concentrations: 0.5 μg/mL human-TNFα+/−[…] or 0.1% DMSO). […] (Secondary antibody: anti-mouse-Alexa488), before analysis for receptor-bound TNFα.
Target sequence in this assay (P01375 77-233 limits assumed): as above
Target sequence in this assay (P19438 30-455 partner): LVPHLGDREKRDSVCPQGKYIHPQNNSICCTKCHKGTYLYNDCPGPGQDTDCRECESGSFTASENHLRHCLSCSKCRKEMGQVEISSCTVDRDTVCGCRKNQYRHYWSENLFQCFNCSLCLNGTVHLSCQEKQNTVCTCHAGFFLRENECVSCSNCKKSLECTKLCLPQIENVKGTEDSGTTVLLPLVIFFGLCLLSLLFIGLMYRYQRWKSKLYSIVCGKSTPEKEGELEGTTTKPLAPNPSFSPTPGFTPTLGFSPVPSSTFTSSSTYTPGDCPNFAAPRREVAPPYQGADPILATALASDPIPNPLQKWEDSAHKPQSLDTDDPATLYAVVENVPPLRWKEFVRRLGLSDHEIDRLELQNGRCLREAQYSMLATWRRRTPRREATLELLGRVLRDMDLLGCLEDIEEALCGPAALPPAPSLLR

membrane-bound TNFα = assay: FACS assay, engineered NS0 cell line overexpressing membrane TNFα; assay type: cell-based; conditions: Fab fragments
membrane-bound TNFα, sequence (P01375 90-233 limits assumed): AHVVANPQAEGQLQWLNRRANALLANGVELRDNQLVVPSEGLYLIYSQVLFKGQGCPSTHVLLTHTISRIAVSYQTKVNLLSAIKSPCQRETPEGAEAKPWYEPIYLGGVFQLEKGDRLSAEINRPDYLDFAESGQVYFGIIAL
Experimental: An engineered NS0 cell line, which overexpresses membrane TNFα, due to knock-out of the TACE cleavage site was incubated with 0.001-10 μM compound (1) or 0.1% DMSO for 1 h at 37° C. Cells were washed, fixed and stained with antibody Fab fragments at 0.01 or 0.1 μg/ml for 1 hour on ice. (Secondary antibody was anti-mouse Fab-DyeLight488 from Jackson ImmunoResearch).

Cc1ccc(C)c(Cn2c(C(O)c3ccncc3)nc3ccc(-c4cnn(C)c4)cc32)c1 (centres unmarked) [compound (1)]
binding kinetics profile (Human TNFα [1]; TNFα captured via antibody CA1974): fast on-fast off
binding kinetics profile (Human TNFα [1]; directly immobilised apo-TNF): slow on-slow off

O=C(NCc1cccc(-c2ccccc2)c1)c1cc(-c2cc(C(=O)NC(C(=O)O)C3CCCCC3)nc(C(=O)N3CCCC3CN3CCCC3)c2)cc(C(=O)N2CCCC2CN2CCCC2)n1 (centres unmarked) [BIO8898]
binding to TNFα (soluble form of TNFα): not to bind; also recorded: no binding

B1: CA185_01979: rat-derived conformation-selective antibody to TNFα-compound complex, LCVR SEQ ID NO: 22, HCVR SEQ ID NO: 23; used as mouse IgG or mouse Fab (antibody, V domains shown)
VH: EVHLVESGPGLVKPSQSLSLTCSVTGYSITNSYWDWIRKFPGNKMEWMGYINYSGSTGYNPSLKSRISISRDTSNNQFFLQLNSITTEDTATYYCARGTYGYNAYHFDYWGRGVMVTVSS
VL: DIQMTQSPASLSASLEEIVTITCQASQDIGNWLSWYQQKPGKSPHLLIYGTTSLADGVPSRFSGSRSGTQYSLKISGLQVADIGIYVCLQAYSTPFTFGSGTKLEIK
modifications: HCVR of 1979; LCVR of 1979
notes: used as mouse IgG or mouse Fab
stoichiometry Fab : TNFα trimer [2]: 1 Fab: 1 TNFα trimer
staining with the DMSO control (Human TNFα [3]; TNFα pre-incubated with DMSO): no staining
staining / recognition of receptor-bound TNFα (Human TNFα [3]; TNFα pre-incubated with compound (1)): only recognise TNFα which has been pre-incubated with compound (1)
staining with the DMSO controls (membrane-bound TNFα; cells incubated with 0.1% DMSO): no staining
staining / recognition of membrane TNF (membrane-bound TNFα; cells incubated with compound (1)): only recognise TNF which has been pre-incubated with compound (1)
